In the Human Domainome abundance scans (Beltran et al. 2025):
± gives the uncertainty stated by the source.

B1: Zinc finger homeobox protein 4, residues 2086 to 2141; numbered along this chain, Q86UP3 (parent)
chain: RPRTRITDDQLKILRAYFDINNSPSEEQIQEMAEKSGLSQKVIKHWFRNTLFKERQ

Variants of: B1
Assay: abundance fitness (aPCA) (normalised: wild type 0, dead -1); higher = more abundant; growth selection in yeast, the domain comes from the species named
Details: Homo sapiens

| Variant | abundance fitness |
| --- | --- |
| RPRTRITDDQLKILRAYFDINNSPSEEQYQEMAEKSGLSQKVIKHWFRNTLFKERQ | 0.048 ± 0.17 |
| RPRTRITDDQLKILRAYFDINNSPSEEQGQEMAEKSGLSQKVIKHWFRNTLFKERQ | -0.605 ± 0.07 |
| RPRTRITDDQLKILRAYFDINNSPSEEQEQEMAEKSGLSQKVIKHWFRNTLFKERQ | -0.025 ± 0.091 |
| RPRTRITDDQLKILRAYFDINNSPSEEQKQEMAEKSGLSQKVIKHWFRNTLFKERQ | -0.226 ± 0.13 |
| RPRTRITDDQLKILRAYFDINNSPSEEQQQEMAEKSGLSQKVIKHWFRNTLFKERQ | -0.147 ± 0.12 |
| RPRTRITDDQLKILRAYFDINNSPSEEQMQEMAEKSGLSQKVIKHWFRNTLFKERQ | -0.081 ± 0.11 |
| RPRTRITDDQLKILRAYFDINNSPSEEQTQEMAEKSGLSQKVIKHWFRNTLFKERQ | -0.266 ± 0.1 |
| RPRTRITDDQLKILRAYFDINNSPSEEQAQEMAEKSGLSQKVIKHWFRNTLFKERQ | -0.376 ± 0.075 |
| RPRTRITDDQLKILRAYFDINNSPSEEQWQEMAEKSGLSQKVIKHWFRNTLFKERQ | -0.16 ± 0.091 |
| RPRTRITDDQLKILRAYFDINNSPSEEQPQEMAEKSGLSQKVIKHWFRNTLFKERQ | -0.814 ± 0.14 |
| RPRTRITDDQLKILRAYFDINNSPSEEQNQEMAEKSGLSQKVIKHWFRNTLFKERQ | -0.462 ± 0.2 |
| RPRTRITDDQLKILRAYFDINNSPSEEQCQEMAEKSGLSQKVIKHWFRNTLFKERQ | -0.149 ± 0.1 |
| RPRTRITDDQLKILRAYFDINNSPSEEQLQEMAEKSGLSQKVIKHWFRNTLFKERQ | 0.002 ± 0.08 |
| RPRTRITDDQLKILRAYFDINNSPSEEQHQEMAEKSGLSQKVIKHWFRNTLFKERQ | -0.347 ± 0.25 |
| RPRTRITDDQLKILRAYFDINNSPSEEQRQEMAEKSGLSQKVIKHWFRNTLFKERQ | -0.21 ± 0.068 |
| RPRTRITDDQLKILRAYFDINNSPSEEQFQEMAEKSGLSQKVIKHWFRNTLFKERQ | -0.02 ± 0.13 |
| RPRTRITDDQLKILRAYFDINNSPSEEQDQEMAEKSGLSQKVIKHWFRNTLFKERQ | -0.744 ± 0.12 |
| RPRTRITDDQLKILRAYFDINNSPYEEQIQEMAEKSGLSQKVIKHWFRNTLFKERQ | -0.471 ± 0.31 |
| RPRTRITDDQLKILRAYFDINNSPFEEQIQEMAEKSGLSQKVIKHWFRNTLFKERQ | -0.468 ± 0.23 |
| RPRTRITDDQLKILRAYFDINNSPPEEQIQEMAEKSGLSQKVIKHWFRNTLFKERQ | -0.26 ± 0.38 |
| RPRTRITDDQLKILRAYFDINNSPSEEQIAEMAEKSGLSQKVIKHWFRNTLFKERQ | -0.019 ± 0.1 |
| RPRTRITDDQLKILRAYFDINNSPSEEQICEMAEKSGLSQKVIKHWFRNTLFKERQ | -0.275 ± 0.17 |
| RPRTRITDDQLKILRAYFDINNSPSEVQIQEMAEKSGLSQKVIKHWFRNTLFKERQ | -0.071 ± 0.14 |
| RPRTRITDDQLKILRAYFDINNSPSESQIQEMAEKSGLSQKVIKHWFRNTLFKERQ | -0.105 ± 0.17 |

| Variant | abundance fitness |
| --- | --- |
| RPRTRITDDQLKILRAYFDINNSPSEKQIQEMAEKSGLSQKVIKHWFRNTLFKERQ | -0.054 ± 0.25 |
| RPRTRITDDQLKILRAYFDINNSPSEQQIQEMAEKSGLSQKVIKHWFRNTLFKERQ | 0.142 ± 0.18 |
| RPRTRITDDQLKILRAYFDINNSPSEYQIQEMAEKSGLSQKVIKHWFRNTLFKERQ | -0.391 ± 0.29 |
| RPRTRITDDQLKILRAYFDINNSPSEDQIQEMAEKSGLSQKVIKHWFRNTLFKERQ | -0.18 ± 0.29 |
| RPRTRITDDQLKILRAYFDINNSPSEAQIQEMAEKSGLSQKVIKHWFRNTLFKERQ | 0.076 ± 0.15 |
| RPRTRITDDQLKILRAYFDINNSPSEHQIQEMAEKSGLSQKVIKHWFRNTLFKERQ | -0.59 ± 0.49 |
| RPRTRITDDQLKILRAYFDINNSPSEGQIQEMAEKSGLSQKVIKHWFRNTLFKERQ | -0.033 ± 0.096 |
| RPRTRITDDQLKILRAYFDINNSPSETQIQEMAEKSGLSQKVIKHWFRNTLFKERQ | -0.185 ± 0.22 |
| RPRTRITDDQLKILRAYFDINNSPSEIQIQEMAEKSGLSQKVIKHWFRNTLFKERQ | -0.261 ± 0.38 |
| RPRTRITDDQLKILRAYFDINNSPSEMQIQEMAEKSGLSQKVIKHWFRNTLFKERQ | 0.082 ± 0.21 |
| RPRTRITDDQLKILRAYFDINNSPSEPQIQEMAEKSGLSQKVIKHWFRNTLFKERQ | -0.24 ± 0.23 |
| RPRTRITDDQLKILRAYFDINNSPSEWQIQEMAEKSGLSQKVIKHWFRNTLFKERQ | 0.021 ± 0.21 |
| RPRTRITDDQLKILRAYFDINNSPSERQIQEMAEKSGLSQKVIKHWFRNTLFKERQ | -0.02 ± 0.1 |
| RPRTRITDDQLKILRAYFDINNSPSELQIQEMAEKSGLSQKVIKHWFRNTLFKERQ | -0.194 ± 0.12 |
| RPRTRITDDQLKILRAYFDINNSPSENQIQEMAEKSGLSQKVIKHWFRNTLFKERQ | 0.129 ± 0.38 |
| RPRTRITDDQLKILRAYFDINNVPSEEQIQEMAEKSGLSQKVIKHWFRNTLFKERQ | -0.052 ± 0.072 |
| RPRTRITDDQLKILRAYFDINNWPSEEQIQEMAEKSGLSQKVIKHWFRNTLFKERQ | -0.176 ± 0.093 |
| RPRTRITDDQLKILRAYFDINNSPSEEAIQEMAEKSGLSQKVIKHWFRNTLFKERQ | -0.092 ± 0.076 |
| RPRTRITDDQLKILRAYFDINNSPSEEGIQEMAEKSGLSQKVIKHWFRNTLFKERQ | -0.178 ± 0.072 |
| RPRTRITDDQLKILRAYFDINNSPSEEWIQEMAEKSGLSQKVIKHWFRNTLFKERQ | -0.38 ± 0.085 |
| RPRTRITDDQLKILRAYFDINNSPSEEYIQEMAEKSGLSQKVIKHWFRNTLFKERQ | -0.236 ± 0.12 |
| RPRTRITDDQLKILRAYFDINNSPSEERIQEMAEKSGLSQKVIKHWFRNTLFKERQ | 0.037 ± 0.065 |
| RPRTRITDDQLKILRAYFDINNSPSEEMIQEMAEKSGLSQKVIKHWFRNTLFKERQ | -0.153 ± 0.11 |
